Data from the nanobody polyreactivity screen of Harvey et al. (2022).

Assay: yeast display, Sf9 membrane polyspecificity reagent, FACS + sequencing; frameworks hold sequencing errors
How it was run: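 A nanobody's polyreactivity label depends on the gate it was sorted from. Yeast display cells were stained with 10% biotinylated, detergent-solubilized Sf9 membrane reagent for 1 hour at 4 °C, enriched on streptavidin microbeads and sorted by FACS. The low and high (top ~1%) gates were set on anti-HA fluorescence for expression and streptavidin fluorescence for reagent binding.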

| Sequence | polyreactivity (PSR sort gate) |
| --- | --- |
| QVQLVESGGGLVQAGGSLRLSCAASGFIFIRYAMGWYRQAPGKERELVAAISPSGGSTYYADSVKGRFTISRDNAKNTVYLQMNSLKPEDTAVYYCAREWRTYYYFWDHYYIYDYWGQGTQVTVSS | high polyreactivity |
| QVQLVESGGGLVQAGGSLRLSCAASGRISRLNAMGWYRQAPGKERELVATISGRGGGTYYADSVKGRFTISRDNAKNTVYLQMNSLKPEDTAVYYCAVRGLYQGRRRYSSEYDYWGQGTQVTVSS | high polyreactivity |
| QVQLVESGGGLVQAGGSLRLSCAASGSIFSSYAKGWYLQAPGKERELVAAISQSGGDTYYADSVKGRFTISRDNAKNTVYLEMNSLKPEDSAVYYCAASVWYYPMDYWGQGSQVTVSS | low polyreactivity |
| QVQLVESGGGLVQAGGSLRLSCAPSVSINNHYAMGWYRQAPGKERELVAAISRSGGLTYYADSVKGRFTISRDNAKNTVYLQMNCLIAEDTAVYYCDAGTSWPWYQRDYWGQGTQVTVSS | low polyreactivity |
| QVQLEESGGGLVQAGGSLRLSCAASGIIFRGNAMGWYIQAPGKERELFAAIRFSGGSTYYADSVKGRFTISRDNAKNTVYLQMNSLKPEDTAVYYCAATRRRYGSTTSEYYYWGQGTQVTVSS | high polyreactivity |
| QVQLVESGGGLVQAGGSLRLSCAASGITFNRYAMGWYRQAPGKERELVARISLRGGNTYYADSVKGRFTISRDNAKNTVYLQMNSLKPEDTAVYYCAVRGRASLRGTRYGYWGQGTQVTVSS | high polyreactivity |
| QVQLVESGGGLVQAGGSLRLSCAASGRIFVSNAMGWYRQAPGKERELVAGITWTSGSTYYADSVKGRFTISRDNAKNTFYLQMNSLKPEDSAVYYCAAEFWYGNALDYWGQGTQVTVSS | low polyreactivity |
| QVQLVESGGGLVQAGGSLRLSCAASGRTFKNYAMGWYRQSPGKERELVAVISRRGSSTYYADSVKGRFTISRDNAKNTVYLQMNSLKPEDTAVYYSAARLGVPYPYIAYDYWGQGTQVTVSS | high polyreactivity |
| HVQLQESGGGLVLAGGSLRLSCPASGNIVVYSYMGWYRQAPGKAREFVAAIGAGSTTYYADSVSRFTISRDNAKNSVYLQMNSLKQVDTAVYYCSVEFQYAGFWYWGQGTQVTVSS | low polyreactivity |
| QVQLVETGGGLVQAGGSLRLSCAASGRIFTYYAMGWYRQAPGKERELVAGISSRGTRTYYADSVKGRFTISRDNAKNTVYLQMNSLKPDDTAVYYCAAYPQFWYWDYNYWGQGTQVTVSS | high polyreactivity |
| QVQLVESGGGLVQAGGSIRLSCAASGSTYFVYTMGWYRQATGQERELVAAISGSGRSTSYADSVKGRFTISRDNAKNTVYLQMNSLKPEDNAVYYCAARSHVYLRGSTFEFNYWGQGTQVTVSS | high polyreactivity |
| QVQLVESGGGLFQAGGSLRLSCAASGISFWSYDMGWYRQAPGKERELVAAISRGGESTYYADSVKGRFTISRDLAKNTVYVQMNSLKPEDTAVYYCPALRPREEYYWGQGTQVTVSS | high polyreactivity |
| QVQLVESGGGLGQAGGSLRLICAASGIIFLYYAMGWYRQAPGKERELVAAITRSGGNTYYADSVKGRFTISRDNAKNTVYLQMNSLIPEDTAVYYCAARHNSVRGRGYGYDYWGQGTQVTVSS | low polyreactivity |
| QVQLVESGGGLVQAGGSLRLSCAASGRTFTYYAMGWYRQAPGKERELVAAIRWTGDSTYYADSVKGRFTISRDNAKNTVYLQMNSLKPEDTAVYYCAKQARWQYDGGIRWYYYWGQGTQVTVSS | high polyreactivity |
| QVQLVESGGGLVQAGGSLRLSCAASGGTFGNNDMGWYRQAPGKERELVAAIRSAGTTYYADSVKGRFTISRDNAKNTVYLQMNSLKPEDTAVYYWNADTTGYWSFGFQYYGEDYWGQGTQVTVSS | low polyreactivity |
| QVQLVESGGGLVQAGGSLRLSCAASGSTFVAYAMGSYRQAPGKERELVAAISASGVRTYYADSVKGRFTISRDNAKNTVYLQMNSLKPEDTAVYYCAATVFRKYRYGYWGQGTQVTVSS | high polyreactivity |

| Sequence | polyreactivity (PSR sort gate) |
| --- | --- |
| QVQLVESGGGLVQAGGSLRLSCAASGRIFTRYGMGWYRQAPGKEREFVAGISWSGGSTFYADSVKGRFTISRDNAKNTVYLQMHSLKPEDTAVYYCAARLYLRRPYEYWGQGTQVTVSS | high polyreactivity |
| QVQLVESGGGLVQAGGRLRLSCAASGRIISHYAMGWYRQAPGKEWELVAAISRSGGSTYYADSVKGRFTLSRDNAKNTVYLQMNSLKPEDTAVYYCAARSWPNIRCHDYWGQGTQVTVSS | high polyreactivity |
| QVQLVESGGGLVQAGGSLRLSCAASGLTFLRNGMGWYRQAPGKERELVASITRSGARTYYADSVKGRFTISRDNAKNTVYLQMNSLKPEDTAVSYCAARAYVSHYGVSNFGDYYWGQGTQVTVSS | high polyreactivity |
| QVQLVESGGGLVQAGGSLSLICAASGFIFDVYAMGWYRQAPGKERELVAAISRSGGSTHYADSVKGRFTISRDNAKNTVYLQMNSLKPEDTAVYYFATRIRVGYAKYDYWGQGTQVTVSS | high polyreactivity |
| QVQLVESGGCLVQAGGTLRLSGAASGRTFRADGMGWCRQPPGKEWELVAVISWRDGSTFYADSVQGRFTISRDTAKNTVYLQMNSLKPEDTAVYYCNKASQLYYIQGTYSYGYWGQGTQVTVSS | low polyreactivity |
| QVQLVESGGGLVQAGGSLRLSCAASRSTLLSNAMGWYTQAPGKERELVAAINYSGGRTYYADSVKGRFTISRDNAKNTVYLQINSLKPVDTAVYYCNALSSGHGSSSRYDYWGQGTQVTVSS | low polyreactivity |
| QVQLVESGGGLVQAGGSLRLSCAASGFTFRLYVMGWYREAPGTERELVAALSSRGGSTYYADSVKGRFTISRDNAKYTVYLQMNRLKPDDTAFYYCAADRPRCRETVDYWGHGTQVTVSS | high polyreactivity |
| QVQLVESGGGLVQAGGILRLSCAASGRILPSNAMGWYRQAPGKERELVAGITSGGSTDYADSVKGRFTISRDNAKNTVYLQMNSLKQEDTAVYYCNKPFPYYPDGPNGYDYWGLGTQVTVSS | low polyreactivity |
| QVQLVESGGGLVLAGGSLRLSCAASGRTFVQYAMGWYRQAPGTERELVAAISDRGGNTYYADSVKGRFTISRDNAKNTVYLQMNSLKPDDTAVYYCAAKIALDNDYWGQGTQVTVSS | high polyreactivity |
| QVQLVESGGGLVQAGGSLRLSCAASGRIFWFYTMGWYRQAPGKERELVARITTSGGSTYYADSVKGRFTISRDNAKNTVYLQMNSLKPEDTAVYYCAARPRDYHSFSLDYYYWGQGTQVTVSS | high polyreactivity |
| QVQLGESGGGLVQAGGSLRLSCAASGFTFYTYAMGLYRQAPGKERELVATISSGGRTNYADSVKGRFTISRDNAKNTVYLQMNSLKPEDPAVFYCNASPPTLEGYWGQGTQVTVSS | low polyreactivity |
| QVQLVESGGGLVQAGGSLRLSCAASGRIGVYAMGWYRQAPGKERELVAAIRRSGGNTYYADSVKGRFTISRDNAKNTVYLQMNSLKPEDTAVYYCAAGRPYRFYPRYDYWGQGTQVTVSS | high polyreactivity |
| QVQLVESGGGLVQAGGILRLSCPASGSTLDRYVMGWYRQAPGKERELVAVISQSGGSTYYADSVKGRFTISRDNAKNTVYLQINSLKPEDTAVYYCAAKRYSFAYRQYDYWGQGTQVTVSS | high polyreactivity |
| QVQLVESGGGLVQAGGSLRLSCAASGFIFYSYAMGWYRQAPGKERELVAAISSSGRTNYADSVKGRFTISRDNAKNTVYLQMNSLKPEDTAVYYCNVVRWHGYRVGRYDYWGQGSQVTVSS | high polyreactivity |
| QVQLVESGGGLVQAGGSLRISCDASGRTFYVYDRGWYRQAPGKERELVAVISSSGSTNYADSVKGRFTISRDNAKNTVYLQMNSLKPEDTAVYYCNRRRWYFFSLDYWGQGTQVTVSS | high polyreactivity |
